Test results reported in patent US20170022287A1 (Chugai, published 2017).

How the values were obtained:
[1] = target: T1, CRD1-2; assay: ELISA, coated CD137-Fc protein 2 µg/mL, antibody 10 or 5 µg/mL, absorbance 620 nm; Non (uncoated well) 0.061
T1 construct: also called fragmented human CD137-Fc fusion protein CRD1-2
Description: (§1) Fragmented human CD137-Fc fusion proteins were diluted to 2 μg/mL in an aqueous sodium carbonate solution adjusted to pH9.6. Fifty μL of a diluted fragmented human CD137-Fc fusion protein was added individually to each well of a Nunc MaxiSorp flat-bottom 96 well plate (Nunc). This was allowed to stand at 4° C. overnight or longer, and then the plate was allowed to stand at room temperature for one hour so that the plate has the same temperature as the room temperature. The solution containing the fragmented human CD137-Fc fusion protein was removed by tilting, and each well was washed three times with 300 μL of Wash buffer (TBS containing 0.1% Tween20, TaKaRa). Next, 150 μL of blocking buffer (TBS containing 2% BSA) was added to each well, and this was allowed to stand for one hour or more. The blocking buffer was removed by tilting, and each well was washed three times with Wash Buffer in a similar manner to an earlier step. Then, 50 μL of an antibody solution prepared in advance by dilution with TBS to 10 μg/mL or 5 μg/mL was added to each well. This was subjected to a speed of 600 rpm or so for one hour at room temperature to bind the antibody to the immobilized antigen. […] 100 μL of a secondary antibody solution produced by 1000-fold dilution with TBS containing 0.1% Tween20 was added to each well. For the secondary antibody, ANTIBODY ALKALINE PHOSPHATASE CONJUGATE HUMAN IMMUNOGLOBULIN ABSORBED Goat Anti-Human Kappa Alkaline Phosphate from BIOSOURCE was used in the case of antibodies carrying a Kappa chain, and Human Lambda Light Chain Antibody; Goat anti-Human Lambda Light Chain Antibody Alkaline Phosphatase Conjugated from BETHYL LABORATORIES INC. was used in the case of antibodies carrying a Lambda chain. […] Color development was performed using the BluePhos Microwell kit from KPL. After the chromogenic reaction was stopped using the AP stop solution from KPL, the absorbance was measured at 620 nm on an absorptiometer.

[2] = target: T2, CRD2-3; assay: as above
T2 construct: also called fragmented human CD137-Fc fusion protein CRD2-3
T2 sequence (chain, as listed by the source limits assumed): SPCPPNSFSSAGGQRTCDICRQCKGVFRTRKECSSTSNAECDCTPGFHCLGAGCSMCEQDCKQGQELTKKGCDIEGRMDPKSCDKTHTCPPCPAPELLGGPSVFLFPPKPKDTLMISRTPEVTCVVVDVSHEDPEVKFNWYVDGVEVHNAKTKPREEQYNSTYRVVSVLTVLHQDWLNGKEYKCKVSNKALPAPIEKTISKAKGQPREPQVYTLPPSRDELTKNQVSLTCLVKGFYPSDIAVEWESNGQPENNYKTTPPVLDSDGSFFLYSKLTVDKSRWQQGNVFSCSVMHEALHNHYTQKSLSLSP
Description: as §1

[3] = target: T3, CRD2-4; assay: as above
T3 construct: also called fragmented human CD137-Fc fusion protein CRD2-4
T3 sequence (chain, as listed by the source limits assumed): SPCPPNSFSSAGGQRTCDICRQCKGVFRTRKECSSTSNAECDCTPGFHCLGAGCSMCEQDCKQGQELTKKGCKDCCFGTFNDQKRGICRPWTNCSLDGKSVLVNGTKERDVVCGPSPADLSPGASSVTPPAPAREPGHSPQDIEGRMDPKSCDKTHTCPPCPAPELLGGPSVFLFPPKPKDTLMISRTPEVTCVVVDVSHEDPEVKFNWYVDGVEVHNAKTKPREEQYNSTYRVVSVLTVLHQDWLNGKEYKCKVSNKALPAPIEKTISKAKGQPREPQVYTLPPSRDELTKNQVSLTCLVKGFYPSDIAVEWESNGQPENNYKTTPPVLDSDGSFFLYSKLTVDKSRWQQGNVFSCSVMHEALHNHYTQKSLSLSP
Description: as §1

[4] = target: full-length human CD137-Fc fusion protein (human); assay: as above
Sequence of full-length human CD137-Fc fusion protein (human) (chain, as listed by the source limits assumed): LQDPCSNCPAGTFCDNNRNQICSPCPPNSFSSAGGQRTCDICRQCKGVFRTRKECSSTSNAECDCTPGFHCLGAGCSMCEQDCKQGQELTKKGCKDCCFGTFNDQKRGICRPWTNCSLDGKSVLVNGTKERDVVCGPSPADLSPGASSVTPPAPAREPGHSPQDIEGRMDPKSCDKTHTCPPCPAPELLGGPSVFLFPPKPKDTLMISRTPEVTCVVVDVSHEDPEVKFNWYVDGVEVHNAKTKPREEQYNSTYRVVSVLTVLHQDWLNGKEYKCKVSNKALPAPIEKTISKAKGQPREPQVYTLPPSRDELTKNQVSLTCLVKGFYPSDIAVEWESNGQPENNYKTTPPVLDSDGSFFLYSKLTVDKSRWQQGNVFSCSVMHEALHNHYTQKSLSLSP
Description: as §1

[5] = target: T4, CRD1-3; assay: as above
T4 construct: also called fragmented human CD137-Fc fusion protein CRD1-3
T4 sequence (chain, as listed by the source limits assumed): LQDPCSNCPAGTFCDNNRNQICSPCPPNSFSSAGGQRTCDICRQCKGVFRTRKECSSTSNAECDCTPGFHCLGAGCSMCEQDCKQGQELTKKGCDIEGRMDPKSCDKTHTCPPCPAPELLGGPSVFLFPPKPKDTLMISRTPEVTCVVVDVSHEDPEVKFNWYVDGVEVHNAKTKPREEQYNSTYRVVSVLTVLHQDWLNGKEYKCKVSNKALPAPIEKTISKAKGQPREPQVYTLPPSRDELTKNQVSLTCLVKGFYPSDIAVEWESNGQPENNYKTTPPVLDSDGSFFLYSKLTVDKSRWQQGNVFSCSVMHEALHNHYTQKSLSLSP
Description: as §1

[6] = target: T5, CRD1; assay: as above
T5 construct: also called fragmented human CD137-Fc fusion protein CRD1
T5 sequence (chain, as listed by the source limits assumed): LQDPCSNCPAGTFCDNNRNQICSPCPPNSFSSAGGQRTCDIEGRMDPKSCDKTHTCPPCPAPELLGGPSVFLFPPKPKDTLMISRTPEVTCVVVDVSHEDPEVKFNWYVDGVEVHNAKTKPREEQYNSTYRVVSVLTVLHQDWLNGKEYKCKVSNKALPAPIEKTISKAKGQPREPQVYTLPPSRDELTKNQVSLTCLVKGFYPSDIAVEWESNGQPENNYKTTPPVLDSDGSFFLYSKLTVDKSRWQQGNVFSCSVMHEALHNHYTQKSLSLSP
Description: as §1

[7] = target: T6, CRD3-4; assay: as above
T6 construct: also called fragmented human CD137-Fc fusion protein CRD3-4
T6 sequence (chain, as listed by the source limits assumed): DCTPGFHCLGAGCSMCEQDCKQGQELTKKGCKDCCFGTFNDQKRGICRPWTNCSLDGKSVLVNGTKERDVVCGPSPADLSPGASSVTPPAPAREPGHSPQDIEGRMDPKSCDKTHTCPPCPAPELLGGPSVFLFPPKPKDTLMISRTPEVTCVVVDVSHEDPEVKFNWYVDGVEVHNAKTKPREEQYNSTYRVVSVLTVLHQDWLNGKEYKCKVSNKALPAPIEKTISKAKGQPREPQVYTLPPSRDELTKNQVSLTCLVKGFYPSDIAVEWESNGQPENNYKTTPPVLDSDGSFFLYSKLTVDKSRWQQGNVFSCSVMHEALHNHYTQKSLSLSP
Description: as §1

[8] = target: T1, CRD1-2; assay: ELISA, coated CD137-Fc protein 2 µg/mL, antibody 10 or 5 µg/mL; absorbance 620 nm divided by that of the uncoated well
Description: as §1

[9] = target: T2, CRD2-3; assay: as above
Description: as §1

[10] = target: T3, CRD2-4; assay: as above
Description: as §1

[11] = target: full-length human CD137-Fc fusion protein (human); assay: as above
Description: as §1

[12] = target: T4, CRD1-3; assay: as above
Description: as §1

[13] = target: T5, CRD1; assay: as above
Description: as §1

[14] = target: T6, CRD3-4; assay: as above
Description: as §1

[15] = target: T1, CRD1-2; assay: ELISA, coated CD137-Fc protein 2 µg/mL, antibody 10 or 5 µg/mL, absorbance 620 nm; Non (uncoated well) 0.051
Description: as §1

[16] = target: T2, CRD2-3; assay: as above
Description: as §1

[17] = target: T3, CRD2-4; assay: as above
Description: as §1

[18] = target: full-length human CD137-Fc fusion protein (human); assay: as above
Description: as §1

[19] = target: T4, CRD1-3; assay: as above
Description: as §1

[20] = target: T5, CRD1; assay: as above
Description: as §1

[21] = target: T6, CRD3-4; assay: as above
Description: as §1

[22] = target: T1, CRD1-2; assay: ELISA, coated CD137-Fc protein 2 µg/mL, antibody 10 or 5 µg/mL, absorbance 620 nm; Non (uncoated well) 0.202
Description: as §1

[23] = target: T2, CRD2-3; assay: as above
Description: as §1

[24] = target: T3, CRD2-4; assay: as above
Description: as §1

[25] = target: T4, CRD1-3; assay: as above
Description: as §1

[26] = target: T5, CRD1; assay: as above
Description: as §1

[27] = target: T6, CRD3-4; assay: as above
Description: as §1

T1 sequence (chain, as listed by the source limits assumed): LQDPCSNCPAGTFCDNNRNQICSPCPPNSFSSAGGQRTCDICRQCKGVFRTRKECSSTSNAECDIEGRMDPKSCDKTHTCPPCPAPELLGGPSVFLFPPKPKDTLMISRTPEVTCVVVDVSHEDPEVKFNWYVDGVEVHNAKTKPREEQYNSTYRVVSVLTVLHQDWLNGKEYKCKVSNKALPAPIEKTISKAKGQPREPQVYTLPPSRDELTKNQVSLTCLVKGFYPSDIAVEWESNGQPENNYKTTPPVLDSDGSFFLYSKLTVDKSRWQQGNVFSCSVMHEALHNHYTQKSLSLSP

Binder	Ratio with respect to Non-Coating [8]	Ratio with respect to Non-Coating [9]	Ratio with respect to Non-Coating [10]	Ratio with respect to Non-Coating [11]	Ratio with respect to Non-Coating [12]	Ratio with respect to Non-Coating [13]	Ratio with respect to Non-Coating [14]	further results
R3 (antibody, V domains shown, Naive library clone; Fab on phage in the phage ELISA) VH: EVQLVQSGAEVKKPGASVKVSCKASGYTFTSYYTHWVRQAPGQGLEWMGIINPSGGSTSYAQKFQGRVTMTRDTSTSTVYMELSSLRSEDTAVYYCARGAPEYSSSSDYWGQGTMVTVSS VL: QSALTQPASVSGSPGQSITISCTGTSSDVGGYNFVSWYQQHPGKAPKLMIYDVSKRPSGVSTRFSGSKSGNTASLTISGLQAEDEADYYCNSYTTSSTRWMFGGGTKVTVL	28.5	1.6	1.4	33.7	18.4	1.7	1.3	ELISA color development level [1]: 1.74; ELISA color development level [2]: 0.0995; ELISA color development level [3]: 0.0875; ELISA color development level [4]: 2.06; ELISA color development level [5]: 1.12; ELISA color development level [6]: 0.103; ELISA color development level [7]: 0.077
R4 (antibody, V domains shown, Naive library clone; Fab on phage in the phage ELISA) VH: EVQLVQSGAEVKKPGASVKVSCKASGYTFSGYYMHWVRQAPGQGLEWMGWINPNSGDTNYAQNFQGRVTMTRDTSISTAYMELSRLRSDDTAVYYCARDGTGYSSSPDYWGQGTPVTVSS VL: QSALTQPASVSGSPGQSITISCTGTSSDVGGYNYVSWYQQHPGKAPKLMIYDVSNRPSGVSNRFSGSKSGNTASLTISGLQAEDEADYYCSSYTSSSTRWVFGGGTKLTVL	29.3	1.1	1.3	37.1	15.3	1.2	1.1	ELISA color development level [15]: 1.49; ELISA color development level [16]: 0.0585; ELISA color development level [17]: 0.065; ELISA color development level [18]: 1.89; ELISA color development level [19]: 0.779; ELISA color development level [20]: 0.0635; ELISA color development level [21]: 0.056
R2 (antibody, V domains shown, Naive library clone; Fab on phage in the phage ELISA) VH: EVQLQESGPGLVKPSETLSLTCTVSGGSISSSSYYWGWIRQPPGKGLEWIGSIHYTGSTYYNPSLKSRVTISVDTSKNQFSLKLSSVTAADTAVYYCARLNPSIAARPGAFDIWGQGTMVTVSS VL: QSVLTQPPSVSAAPGQKVTISCSGSSSNIANNFVSWFQQLPGTAPKLLIYDNNKRPSGIPDRFSGSKSGTSATLGITGLQTGDEADYYCGTWDRSLSAGVFGGGTKVTVL	1	0.9	0.7		1.1	1.1	0.5	ELISA color development level [22]: 0.202; ELISA color development level [23]: 0.19; ELISA color development level [24]: 0.15; ELISA color development level [25]: 0.226; ELISA color development level [26]: 0.226; ELISA color development level [27]: 0.11
